{
  "source": "the supplement of paper PMC9732359",
  "note": "± gives the uncertainty stated by the source.",
  "data": [
    {"assay": "protein stability index of a GFP-peptide fusion (yeast GPS) (PSI 1-4); higher = more stable; sorted into four equal gates, so the index is relative within each strain", "conditions": "doa10∆", "procedure,_shortened": "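Plasmids in a pooled yeast library fused tiled 17-residue yeast protein peptides downstream of GFP and also expressed Cherry. Mid-log cultures grown without leucine were sorted into four equal gates by GFP/Cherry fluorescence ratio. Each gate's plasmids were PCR-amplified and Illumina-sequenced, and reads were matched to strains by barcodes. The protein stability index is derived by multiplying each gate's read frequency by its gate number and summing the results.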", "values": [
      {"sequence": "ENYDDTELRQLFQENDD [DSN1]", "protein stability index": "2.23 ± 0.072"},
      {"sequence": "EPDLESQISKAEMEADS [SMC4]", "protein stability index": "2.89 ± 0.078"},
      {"sequence": "EPDREKIKLLTQATSED [RPC19]", "protein stability index": "2.95 ± 0.2"},
      {"sequence": "EPELRVLSTEEILNIFK [RPO21]", "protein stability index": "3.43 ± 0.22"},
      {"sequence": "EPIRFLPNQFPLKIHRT [SWI1]", "protein stability index": "1.66 ± 0.06"},
      {"sequence": "EPLAIALSMGKSSAFVI [ARP7]", "protein stability index": "1.48 ± 0.076"},
      {"sequence": "EPNSAKKIRFLQLIIFL [RGR1]", "protein stability index": "1.66 ± 0.11"},
      {"sequence": "EPPAGVALPPGSNYNPY [CYT1]", "protein stability index": "2.77 ± 0.12"},
      {"sequence": "EQEDIIEKTESVDKKVD [SWI3]", "protein stability index": "3.04 ± 0.07"},
      {"sequence": "EQKWLIYDKKDHKYVCT [SRB8]", "protein stability index": "2.64 ± 0.29"},
      {"sequence": "EQLSPQDVLQMLGRAGR [BRR2]", "protein stability index": "3.14 ± 0.27"},
      {"sequence": "EQQLFEIFAFGNIKDLP [CSN9]", "protein stability index": "2.88 ± 0.076"},
      {"sequence": "EQTTGGNNKDLKNTMQY [RPB4]", "protein stability index": "3.24 ± 0.11"},
      {"sequence": "EQWLRQFEVSDDEKNDK [SNF2]", "protein stability index": "3.41 ± 0.065"},
      {"sequence": "ERGQKVKNVKNSDLEFN [ARP9]", "protein stability index": "3 ± 0.18"},
      {"sequence": "ERIVVSYEYYNIKHKHT [SMC2]", "protein stability index": "1.63 ± 0.047"},
      {"sequence": "ERLAKVNEMNDQLAQEL [NNF1]", "protein stability index": "3 ± 0.22"},
      {"sequence": "ERLQLLEDVVGAKSFEV [SMC3]", "protein stability index": "3.14 ± 0.21"},
      {"sequence": "ERNAAYQKEYETAERNI [RPL7A]", "protein stability index": "2.71 ± 0.12"},
      {"sequence": "ERRVLLSAPLSKELRAQ [RPL26B]", "protein stability index": "2.87 ± 0.07"},
      {"sequence": "ERSELLRLFNAPDSEYL [SNF2]", "protein stability index": "3.02 ± 0.044"},
      {"sequence": "ERSSKRLAKKPSMKKIK [SIR3]", "protein stability index": "3.18 ± 0.08"},
      {"sequence": "ERVQSDENKDDELVKLL [SRP68]", "protein stability index": "3.52 ± 0.17"},
      {"sequence": "ESDETTTDNNNSGNSNS [RPT1]", "protein stability index": "3.12 ± 0.094"},
      {"sequence": "ESEYREFESELKNVEET [ESC2]", "protein stability index": "3.54 ± 0.25"},
      {"sequence": "ESFKGLQPFWFRVNNAS [ECM29]", "protein stability index": "2.05 ± 0.13"},
      {"sequence": "ESINNVVDQLWSEISNE [RPN2]", "protein stability index": "2.77 ± 0.065"},
      {"sequence": "ESKDSIQDLIVKLKQQK [SMC3]", "protein stability index": "3.35 ± 0.1"},
      {"sequence": "ESKMRQQEAKYRNNEPA [YDL088C/ASM4]", "protein stability index": "3.13 ± 0.074"},
      {"sequence": "ESLKKSPIFEVLSDDAK [ARP9]", "protein stability index": "3.01 ± 0.072"},
      {"sequence": "ESMDFLVLADAFDIELS [YCS4]", "protein stability index": "2.32 ± 0.039"},
      {"sequence": "ESPNYCNALIHIKFSAG [SRB4]", "protein stability index": "1.66 ± 0.042"},
      {"sequence": "ESQPKQTGTRRNSKLLN [MCD1]", "protein stability index": "3.29 ± 0.099"},
      {"sequence": "ESSNEAKKTIQNPLNKS [SIR4]", "protein stability index": "3.12 ± 0.071"},
      {"sequence": "ESVIEQIVKYARKGLTP [RPS13]", "protein stability index": "3.13 ± 0.058"},
      {"sequence": "ETEFPPFREFLQVLIDQ [ECM29]", "protein stability index": "3.46 ± 0.19"},
      {"sequence": "ETISAIEHPMTSAIEVL [RPN1]", "protein stability index": "1.49 ± 0.048"},
      {"sequence": "ETITTKRVPNPNFLGNC [SWP82]", "protein stability index": "2.68 ± 0.054"},
      {"sequence": "ETLEHNPVALEQKLVDL [BRR2]", "protein stability index": "2.15 ± 0.092"},
      {"sequence": "ETLSIFTNVPLNLEQVT [YJL039C/NUP192]", "protein stability index": "2.33 ± 0.044"},
      {"sequence": "ETSSDGSKSDGSAATSG [RPN1]", "protein stability index": "3.39 ± 0.053"},
      {"sequence": "ETTLGEMAEKIDFTLLN [PRP8]", "protein stability index": "3.12 ± 0.093"},
      {"sequence": "ETVPDNVKTSVSQLYRI [RPO31]", "protein stability index": "2.92 ± 0.1"},
      {"sequence": "EVFSRPEWMILTCLPVP [RPO21]", "protein stability index": "1.42 ± 0.12"},
      {"sequence": "EVILVDPQHKAIRRDAR [RPL15A]", "protein stability index": "2.87 ± 0.088"},
      {"sequence": "EVINKEIENATKDIFPL [RPS1A]", "protein stability index": "3.25 ± 0.29"},
      {"sequence": "EVTFKNANIFSSVKCFG [FAS1]", "protein stability index": "2.92 ± 0.046"},
      {"sequence": "EWYLSHLCSGILSSVNR [SRB8]", "protein stability index": "1.41 ± 0.076"},
      {"sequence": "EYALPKTYNKLHYCVSC [RPS26A]", "protein stability index": "1.24 ± 0.069"},
      {"sequence": "EYDTPALFFDPSLNPIP [PRP8]", "protein stability index": "2.82 ± 0.056"},
      {"sequence": "EYKLRSLTLSFIRHVAK [ECM29]", "protein stability index": "2.49 ± 0.068"},
      {"sequence": "EYYVMMDFANLWVFQAF [SRB8]", "protein stability index": "2.37 ± 0.098"},
      {"sequence": "FAKEHNATVNLAMEAIL [YJR042W/NUP85]", "protein stability index": "2.93 ± 0.094"},
      {"sequence": "FARLSRLLSLWEVFQMA [RPC82]", "protein stability index": "1.9 ± 0.11"},
      {"sequence": "FASIPVSNSISRLGEEN [SNU114]", "protein stability index": "2.31 ± 0.058"},
      {"sequence": "FCPGEIVGKSNVLVTMP [YMR129W/POM152]", "protein stability index": "2.69 ± 0.12"},
      {"sequence": "FDHNDKKLSINSAARNI [PRE7]", "protein stability index": "2.72 ± 0.059"},
      {"sequence": "FDKVEVQVRSVMDPITS [DIS3]", "protein stability index": "2.78 ± 0.07"},
      {"sequence": "FDLVRNIVKQNEGIDLD [SMC2]", "protein stability index": "3.11 ± 0.13"},
      {"sequence": "FDQAGKKVSRRNARATR [RPL13A]", "protein stability index": "2.51 ± 0.073"},
      {"sequence": "FDSLRNFIVHSPMLKRI [GRR1]", "protein stability index": "2.89 ± 0.084"},
      {"sequence": "FEEDSDLALPPPPPPPP [PRP8]", "protein stability index": "3.08 ± 0.063"},
      {"sequence": "FEIIFPPTDTNVEESVS [POP5]", "protein stability index": "2.91 ± 0.091"},
      {"sequence": "FEKKELQEKFLNQIATL [IRR1]", "protein stability index": "1.08 ± 0.056"},
      {"sequence": "FEKVGSHLYKARLDGHD [RPN14]", "protein stability index": "2.92 ± 0.26"},
      {"sequence": "FELVSDLSYIEFLFESL [ECM29]", "protein stability index": "2.88 ± 0.067"},
      {"sequence": "FESLPLKSAENSGKQQY [SWP82]", "protein stability index": "3.17 ± 0.063"},
      {"sequence": "FFDGSASSTPIPVLGKP [YOR098C/NUP1]", "protein stability index": "2.6 ± 0.044"},
      {"sequence": "FFKPLDYITEAVFKIVL [SNU114]", "protein stability index": "2.06 ± 0.047"},
      {"sequence": "FFYLRISKKLQFSYLSS [PCI8]", "protein stability index": "1.22 ± 0.076"},
      {"sequence": "FGFSSSGTAATGAASNQ [YOR098C/NUP1]", "protein stability index": "2.69 ± 0.11"},
      {"sequence": "FGKLLQAYQFLNTFGSK [ITC1]", "protein stability index": "1.5 ± 0.064"},
      {"sequence": "FGNIQKVVNFWLLHNGF [RPO21]", "protein stability index": "2.26 ± 0.18"},
      {"sequence": "FGNSLICEDPETAKKIT [SMC2]", "protein stability index": "2.82 ± 0.1"},
      {"sequence": "FGNTSTSSAPAQNQGMF [YGL172W/NUP49]", "protein stability index": "3.3 ± 0.15"},
      {"sequence": "FGPIKVELPTKETVEIG [FAS1]", "protein stability index": "3.01 ± 0.084"},
      {"sequence": "FGVPNSSKNETSKPVFS [YLR335W/NUP2]", "protein stability index": "2.32 ± 0.035"},
      {"sequence": "FHKYRLKRNSWPKTRGV [RPL2A]", "protein stability index": "2.44 ± 0.099"},
      {"sequence": "FHNAVFNSFRRFKSQFL [QCR8]", "protein stability index": "2.31 ± 0.068"},
      {"sequence": "FHSEISPDSTVNRSVVV [YAR002W/NUP60]", "protein stability index": "1.75 ± 0.11"},
      {"sequence": "FICTTFRTDMLQVADKF [SMC3]", "protein stability index": "1.38 ± 0.086"},
      {"sequence": "FILELEHKTPELISFKE [YIL149C/MLP2]", "protein stability index": "2.86 ± 0.081"},
      {"sequence": "FIPNKQLNCVIDRVNGI [RPN7]", "protein stability index": "2.47 ± 0.13"},
      {"sequence": "FIVSGTASDQLFGMCES [PUP3]", "protein stability index": "2.41 ± 0.046"},
      {"sequence": "FKGTDFVHSVKKFLRVR [SRB4]", "protein stability index": "2.66 ± 0.077"},
      {"sequence": "FKKLNSKNMSKSPSLTA [YMR153W/NUP53]", "protein stability index": "2.21 ± 0.065"},
      {"sequence": "FKMNEIVPLHSPFLMGH [SEC65]", "protein stability index": "2.71 ± 0.067"},
      {"sequence": "FKNMGNTCYLNATLQAL [UBP6]", "protein stability index": "1.8 ± 0.083"},
      {"sequence": "FKQIKSADCELLGIDAT [RPO31]", "protein stability index": "1.62 ± 0.083"},
      {"sequence": "FKSLIDEDLLDTQTFSV [YGL172W/NUP49]", "protein stability index": "3.17 ± 0.17"},
      {"sequence": "FKSPIDNSESHPFIPLL [RRP6]", "protein stability index": "1.95 ± 0.07"},
      {"sequence": "FKSVLPIVLLNTLRKCY [UBP6]", "protein stability index": "1.26 ± 0.11"},
      {"sequence": "FLDSQRVWAEYATKRQE [PRP8]", "protein stability index": "1.54 ± 0.078"},
      {"sequence": "FLKEVLSDLSSPVQDWN [YML103C/NUP188]", "protein stability index": "2.92 ± 0.088"},
      {"sequence": "FLKLANGGKFSKSNLIH [RGR1]", "protein stability index": "2.65 ± 0.049"},
      {"sequence": "FLMGIFNSVVNLSRYPK [MTR3]", "protein stability index": "2.6 ± 0.091"},
      {"sequence": "FLNTPNNNINENELFND [SSN2]", "protein stability index": "2.94 ± 0.059"},
      {"sequence": "FLQRVRVWEYRQKNVIH [RPL15A]", "protein stability index": "1.77 ± 0.24"},
      {"sequence": "FLSLLNLATKGMVKLNE [REC8]", "protein stability index": "2.77 ± 0.07"}
    ]}
  ]
}
